# Reference: US20120142103A1, “METHOD FOR INDUCING DIFFERENTIATION INTO EPITHELIAL PROGENITOR CELL/STEM CELL POPULATION AND CORNEAL EPITHELIAL CELL POPULATION FROM INDUCED PLURIPOTENT STEM CELLS” (priority 2010, published 2012)
# Test system: mouse iPS cells
# Test: Modified KCM method: differentiation of mouse iPS cells on collagen into epithelial progenitor/stem cells (immunostaining, flow cytometry of keratin 14-positive cells)
# Assay type: cell-based
# Method: The iPS cells on the SNL feeders were collected by treatment with 0.25% trypsin/EDTA and further pipetted to prepare an iPS cell suspension (single cell suspension). The obtained cell suspension was incubated on a gelatin-coated culture dish for approximately 1 to 2 hours. The supernatant was collected to thereby allow only the feeder cells to adhere to the dish and collect only the iPS cells. The number of the obtained iPS cells was counted. The iPS cells were inoculated at a density of 0.5 to 10×10^3 cells/cm^2 onto a type IV collagen-coated culture dish as described below and cultured at 37° C. for 7 to 28 days in a 5% CO2 atmosphere using a KCM medium shown below. 0.5 nM BMP4, (R&D System) was further added to the KCM medium, and the cells were cultured in the same way as above.
# The cells after differentiation induction were examined for the expressions of a basal epithelial cell marker keratin 14, an epithelial progenitor cell/stem cell marker p63, and a corneal epithelial differentiation marker keratin 12 by an immunostaining method. Moreover, keratin 14-positive cells were analyzed by flow cytometry. The immunostaining method and the flow cytometry analysis will be shown in detail below.
# After fixation in cold methanol (−30° C./20 min), 5% NST was added to the cells, which were then left at room temperature for 30 minutes for blocking. […]
molecule,measurement,setting,value
"BMP4: Bone Morphogenetic Protein 4, one of bone morphogenetic factors, belongs to the transforming growth factor-β (TGF-β) superfamily (protein, UniProt P12644 293-408, looked up) Bone morphogenetic protein 4: SPKHHSQRARKKNKNCRRHSLYVDFSDVGWNDWIVAPPGYQAFYCHGDCPFPLADHLNSTNHAIVQTLVNSVNSSIPKACCVPTELSAISMLYLDEYDKVVLKNYQEMVVEGCGCR","induction efficiency of differentiation (keratin 14-positive cells, flow cytometry)","0.5 nM BMP4 added to KCM medium, day 28, 2.9% without BMP4",6.0%
same,"epithelial induction efficiency (keratin 14-positive and p63-positive cells, immunostaining)","BMP4 added to KCM medium, day 28",significantly increased epithelial induction efficiency
